# Measurements published in patent US20140370037A1 (published 2014).
# T1: human DLL3 antigen (human, UniProt Q9NYJ7 27-492, limits assumed)
# T1 construct: also called immobilized human DLL3; recombinant human DLL3
# T1 sequence (looked up): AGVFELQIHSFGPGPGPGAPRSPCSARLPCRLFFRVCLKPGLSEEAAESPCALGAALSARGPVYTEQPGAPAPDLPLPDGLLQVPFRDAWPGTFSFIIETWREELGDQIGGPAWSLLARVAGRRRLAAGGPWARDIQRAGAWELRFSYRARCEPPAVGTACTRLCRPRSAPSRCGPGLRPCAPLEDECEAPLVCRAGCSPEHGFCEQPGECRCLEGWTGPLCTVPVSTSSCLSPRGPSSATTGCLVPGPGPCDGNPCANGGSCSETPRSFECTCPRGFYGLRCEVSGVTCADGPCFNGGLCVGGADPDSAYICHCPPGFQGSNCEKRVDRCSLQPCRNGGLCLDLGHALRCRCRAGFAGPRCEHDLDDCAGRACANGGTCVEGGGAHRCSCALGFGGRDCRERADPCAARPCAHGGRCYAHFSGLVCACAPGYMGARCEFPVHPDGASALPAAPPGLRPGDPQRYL
# Molecular target: T1, human DLL3 antigen
# Assay: ELISA or flow cytometry screen
row,Binder,binding result
1,"SC16.26 (antibody, V domains shown, murine mAb) VH: QIQLVQSGPELKKPGETVKISCKASGYSFTDYSMHWVKQAPGKGLKWMGWINTETVEPTYADDFMGRFAFSLETSASTAFLQINNLENEDTATYFCARFGSYAMDYWGQGTS VL: not shown",binds
2,"SC16.5 (antibody, V domains shown, murine mAb) VH: QVTLKESGPGILQPSQTLSLTCSFSGFSLSTSGMGVGWIRQPSGEGLEWLADIWWDDNKYYNPSLKSRLTISKDTSSNQVFLKITSVDTADTATYYCARRVNYVYDPYYAMDYWGQGTSVTVSS VL: QIVLTQSPAIMSASPGEKVTMTCSASSSVSYMHWYQQKSGTSPKRWIYDTSKLASGVPARFSGSGSGTSYSLTISSMEAEDAATYYCQQWTRNPLTFGAGTKLELK",binds
3,"SC16.25 (antibody, V domains shown, murine mAb) VH: QVTLKESGPGILQPSQTLSLTCSFSGFSLSTSGMGVGWIRQPSGEGLEWLTDIWWDDNKYYNPSLKSRLTISKDTSSNQVFLNITSVDTADTATYYCARRVNYYYDPYYAMDYWGQGTSVTVSS VL: QIVLTQSPAIMSASPGEKVTMTCSASSSVSYMHWYQQKSGTSPKRWIYDSSKLASGVPARFSGSGSGTSYSLTISSMEAEDAATYYCQQWSSNPLTFGAGTKLELK",binds
4,"SC16.3 (antibody, V domains shown, murine mAb; also called mAb SC16.3) VH: QVTLKESGPGILQPSQTLSLTCSFSGFSLSTSGMGVGWIRQPSGKGLEWLAHIWWDDVKRYNPALKSRLTISKDTSSSQVFLKIASVDTADTATYYCARIADYGGDYYAMDYWGQGTSVTVSS VL: QIVLTQSPAIMSVSLGERVTMTCTASSSVSSSYLHWYQQKPGSSPKLWIYSTSNLASGVPARFSGSGSGTSYFFTISSMEAEDAATYYCHQYHRSPFTFGAGTKLKIR",binds
5,"SC16.30 (antibody, V domains shown, murine mAb) VH: QVTLKESGPGILQPSQTLSLTCSFSGFSLSTSGMGVGWIRQPSGKGLEWLAHIWWDDVKRYKPALKSRLTVSKDTSSNQVFLKIATVDAADTGTYYCARIVDGHPPFAYWGQGTLVTVSA VL: QIVLTQSPTIMSASLGERVTMTCTASSSVTSSYLHWYQQKPGSSPKLWIYSTSNLASGVPARFSGSGSGTSYSLTISSMEAEDAATYYCHQFHRSPFTFGSGTKLEIK",binds
6,"SC16.36 (antibody, V domains shown, murine mAb) VH: QVQLQQSGAELAKPGASVKMSCKASGYTFTTYWMHWVKQRPGQGLEWIGYINPSSGYTEYNQKFKDKATLTADKSSSTAYMQLSSLTSEDSSVYYCARKGSNRGFAYWGQGTLVTVS VL: ETTVTQSPASLSVTTGEKVTIRCITTPDIDDDMNWYQQKPGEPPNLLISEGNSLRPGVPSRFSSSGYGTNFVFTIENTLSEDVADYYCLQSDNMPFTFGSGTKLEIK",binds
7,"SC16.29 (antibody, V domains shown, murine mAb) VH: QVQLQQSGAELARPGASVKLSCKASGYTFTDQYINWVKQRTGQGLEWIGEIYPGRGNTYYNEKFKGKATLTADKSSSTAYMQLSSLTSEDSAVYFCAREDGGYDDAWFAYWGQGTLVTVSA VL: QIVLTQSPAIMSASPGEKVTITCSASSSVSYMHWFQQKPGTSPKLWIYTTSNLASGVPARFSGSGSGTSYSLTVSRMEAEDAATYYCQQRSLYPYTFGGGTKVEIK",binds
8,"SC16.4 (antibody, V domains shown, murine mAb; also called mAb SC16.4) VH: QIQLVQSGPELKKPGETVKISCKASGYTFTDYSMHWVKQAPGKGLKWMGWINTETGEPGYADDFKGRFAFSLETSASTAYLQINNLKNEDTATYFCARYDGYAMDYWGQGTSVTVSS VL: DIQMTQTTSSLSASLGDRVTISCRASQDISNYLNWYQQKPDGTVKLLIYYTSRLHSGVPSRFSGSGSGTDYSLTISNLELEDIATYFCQQGDMLPWTFGGGTKLEIK",binds
9,"SC16.35 (antibody, V domains shown, murine mAb) VH: DVQLQESGPGLVKPSQSLSLTCTVTGYSITSDYAWNWIRQFPGNKLEWMGYISYSGSTSYNPSLKSRISITRDTSKNQFFLQLNSVTTEDTATYYCARFYYGSSYAMDYWGQGTSVTVSS VL: DIQMTQTTSSLSASLGDRVTISCRASQDISNYLNWYQQKPDGTVKLLIYYTSRLHSGVPSRFSGSGSGTDYSLTISNLEQEDIATYFCQQGNTLPYTFGGGTKLEIK",binds
10,"SC16.20 (antibody, V domains shown, murine mAb) VH: QVQLQQSGTELVRPGTSVRVSCKASGYAFGNHLIEWVKQRPGQGLEWIGVINPGTGGTHYNEKFKDKARLTADKSSNTAYMHLNSLTSDDSAVYFCARSPYDYHEGAMDYWGQGTSVTVSS VL: EIQMTQSPSSMSASLGDRITITCQATQDIVKNLNWYQQKPGKPPSFLIYYATELAEGVPSRFSGSGSGSDYSLTIRNLESEDFADHYCLQFYEFPFTFGAGTKLELK",binds
11,"SC16.45 (antibody, V domains shown, murine mAb) VH: QVQLQQSGADLVRPGTSVKVSCKASGYSFTNYLIEWVKQRPGQGLEWIGVINPGSGGTHYNEKFKDKAVLTADKSSTTAHMQLSSLTSDDSAVYFCARSPYDYNDGAMDYWGQGTSVTVSS VL: EIQMTQSPSSMSASLGDRITITCQATQDIVKNLNWYQQKPGKPPSFLIYYATELAEGVPARFSGSGSGSDYSLTISNLESEDFADYHCLQFYEFPFTFGAGTKLELK",binds
12,"SC16.21 (antibody, V domains shown, murine mAb) VH: QVQLQQSGPELVKPGASVKISCKASGYAFSSSWMNWVKQRPGKGLEWIGRIYPGDGDTNYNGKFKGKATLTADKSSSTAYMQLSSLTSEDSAVYFCAMGIYNYDGSRYYSMDYWGQGTSVTVSS VL: DIVMTQSPSSLAMSVGQKVTMSCKSSQSLLNSSNQKNYLAWYQQEPGQSPKLLVSFASTRESGVPDRFTGSGSGTDFTLTISGVQAEDLAVYYCQQHYSIPLTFGAGTKLELK",binds
13,"SC16.18 (antibody, V domains shown, murine mAb) VH: EVKLEESGGGLVQPGESMKLSCAASGFTFSDAWMDWVRQSPEKGLEWVAEIRNKANNHATYYAESVKGKFTISRDDSKSRVYLQMNNLRAADTGIYYCTAYSNFAYWGQGTLVTVST VL: DIQMTQTTSSLSASLGDRVTISCRASQNIINYLNWYQQKPDGTVKLLIYYTSRLHSGVPSRFSGSGSGTDYSLTISNLEPEDIATYYCQQYSERPYTFGGGTKLEIKR",binds

# Results, then the binder that gave them:
row,binding result,Binder
1,binds,"SC16.23 (antibody, V domains shown, murine mAb) VH: QVTLKESGPGILQPSQTLSLTCSFSGFSLSTSNTGIGWIRQPSGTGLEWLAHIWWNDDKYYNPSLKSRLTISKETSNNQVFLKITNVDTADTASYFCVQIGRDYSNYAWYFDVWGAGTTVTVSS VL: QIVLTQSPAIMSASPGEKVTLTCSASSSVSSRYLYWYQQKPGSSPKLWIYSTSNLASGVPARFSGSGSGTSYSLIISSMEAEDAASYFCHQWSNYPLTFGAGTKLELK"
2,binds,"SC16.34 (antibody, V domains shown, murine mAb) VH: QIQLVQSGPELKRPGETVKISCKASGYTFTNYGMNWVKQAPGKGLKWMGWINTYTGDPTYADDFKGRFAFSLETSASTAYLQINNLKNEDTATYFCARIGGNSPSDYWGQGTSLTVSS VL: SIVMTQTPKFLLVSAGDRVTITCKASQSVSNDVAWYQQKPGQSPKLLIYYASNRYSGVPDRFTGSGYGTDFTFTISTVQAEDLAVYFCQQDYSSPWTFGGGTKLEIK"
3,binds,"SC16.38 (antibody, V domains shown, murine mAb) VH: EVQLQQSGAELVKPGASVKLSCTVSGFNIKDTYIHWVKQRPEQGLEWIGRIDPANGNTKYDPKFQGKATITADTSSNTAYLQLSSLTSEDTAVYYCARPTGYFEYWGQGTTLTVSS VL: QIVLTQSPAIMSASPGEKVTMTCSASSSINYMHWYQQKPGTSPKRWIYDTSKLASGVPARFSGSGSGTSYSLTISSMEAEDAATYYCHQRSTWTFGGGTKLEIK"
4,binds,"SC16.41 (antibody, V domains shown, murine mAb) VH: EVKLEESGGGLVQFGGSMKLSCAASGFTFSDAWMDWVRQSPEKGLEWVAEIRNKANNHATYYPESVKGRFTISRDDSKSRVYLQMNNLRAEDTGIYYCTGYSSFAYWGQGTLVTVSA VL: DIQMTQTTSSLSASLGDRVTISCRASQDVINYLNWYQQKPDGTVKLLIYYTSRLHSGVPSRFSGSGSRTDYSLTISNLEPEDIATYYCQQYSERPYTFGGGTKLEIKR"
5,binds,"SC16.19 (antibody, V domains shown, murine mAb) VH: EVQLQQSGAELVRPGASVKLSCTASGFNIKDSLLHWVKQRPEKGLEWIGWIDPEDGETKYAPNFQDKATITTDSSSNTAYLQLISLTSVDTAIYYCAYGNYVRHFDYWGQGTTLTVSS VL: DIQMTQSPSSLSASLGGKVTFTCKASQDIHKYVAWYQHKPGKGPRLLIHYTSTLQPGISSRFSGSGSGRDYSFSISNLEPEDIATYYCLQYNNLYTFGGGTKLEIKR"
6,binds,"SC16.22 (antibody, V domains shown, murine mAb) VH: QVQLQQPGAELVKPGASVKLSCKASGYTFTTYWMHWVKQRPGQGLEWIGEIDPSDSYTYYNQKFKGKATLTVDKSSSTAYMQLSSLTSEDSAVYYCARGDYGNPYAMDYWGQGSSVTVSS VL: DIQMTQTTSSLSASLGDRVTISCRASQDIKNYLNWYQQKPDGTVKPLIYYTSRVHSGVPSRFSGSGSGTDYSLTISNLEQEDIATYFCQQGYTLPFTFGSGTKLE"
7,binds,"SC16.42 (antibody, V domains shown, murine mAb) VH: QIQLVQSGPELKKPGETVKISCKASGYTFTTAGMQWVQKMPGKGFKWIGWINTHSGEPKYADDFKGRFAFSLETSASTAYLQISNLKDEDTATFFCAPLWSDSSFAYWGQGTLVTVSA VL: DVLMTQSPLSLSVSLGDQASISCRSSQNIVHSDRYTYLEWYLQKPGQSPKLLIYGVSNRFSGVPDRFSGSGSGTDFTLKISRVEAEDMGVYYCFQGTHVPYTFGGGTKLEIK"
